From patent US20200247855A1 (published 2020)

What was measured:
Assay in all cases: BLI
CCL18_HUMAN = target: T1, CCL18_HUMAN (human, UniProt P55774 21-89)
T1 chain: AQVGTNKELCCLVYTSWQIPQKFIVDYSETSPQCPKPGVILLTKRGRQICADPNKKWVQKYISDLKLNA

CCL21_HUMAN = target: T2, CCL21_HUMAN (human, UniProt O00585 24-134)
T2 chain: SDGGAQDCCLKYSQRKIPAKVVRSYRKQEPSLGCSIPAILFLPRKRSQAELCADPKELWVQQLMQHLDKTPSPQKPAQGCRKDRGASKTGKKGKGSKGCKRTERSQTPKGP

CCL23_HUMAN = target: T3, CCL23_HUMAN (human, UniProt P55773 22-120)
T3 chain: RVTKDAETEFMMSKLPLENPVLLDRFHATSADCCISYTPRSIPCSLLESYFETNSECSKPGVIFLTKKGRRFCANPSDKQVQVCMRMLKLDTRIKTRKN

CCL11_HUMAN = CCL11_HUMAN (human, UniProt P51671 24-97)
Sequence of CCL11_HUMAN (P51671 24-97): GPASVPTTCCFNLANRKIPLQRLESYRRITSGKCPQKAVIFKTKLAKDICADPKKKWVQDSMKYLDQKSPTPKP

CCL3_HUMAN = target: T4, CCL3_HUMAN (human, UniProt P10147 24-92)
T4 chain: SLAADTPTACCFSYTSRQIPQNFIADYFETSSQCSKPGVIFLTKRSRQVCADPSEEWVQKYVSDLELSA

CCL19_HUMAN = target: T5, CCL19_HUMAN (human, UniProt Q99731 22-98)
T5 chain: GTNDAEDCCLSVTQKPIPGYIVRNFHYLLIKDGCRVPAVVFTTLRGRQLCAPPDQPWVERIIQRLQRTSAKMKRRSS

CCL14_HUMAN = target: T6, CCL14_HUMAN (human, UniProt Q16627 22-93)
T6 chain: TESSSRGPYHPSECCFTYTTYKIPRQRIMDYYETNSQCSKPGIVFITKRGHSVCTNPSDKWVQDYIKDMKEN

CCL24_HUMAN = target: T7, CCL24_HUMAN (human, UniProt O00175 27-104)
T7 chain: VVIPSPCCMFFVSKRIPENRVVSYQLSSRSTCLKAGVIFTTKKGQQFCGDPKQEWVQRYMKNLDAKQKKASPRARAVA

CCL15_HUMAN = target: T8, CCL15_HUMAN (human, UniProt Q16663 22-113)
T8 chain: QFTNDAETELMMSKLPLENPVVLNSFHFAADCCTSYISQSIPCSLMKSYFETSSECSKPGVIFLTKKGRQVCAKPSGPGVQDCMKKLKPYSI

CCL3L1_HUMAN = target: T9, CCL3L1_HUMAN (human, UniProt P16619 24-93)
T9 chain: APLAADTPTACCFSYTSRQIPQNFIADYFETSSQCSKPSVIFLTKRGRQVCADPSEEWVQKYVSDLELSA

CCL13_HUMAN = CCL13_HUMAN (human, UniProt Q99616 24-98)
Sequence of CCL13_HUMAN (Q99616 24-98): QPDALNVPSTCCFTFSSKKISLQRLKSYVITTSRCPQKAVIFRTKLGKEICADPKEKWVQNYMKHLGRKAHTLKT

CCL27_HUMAN = target: T10, CCL27_HUMAN (human, UniProt Q9Y4X3 25-112)
T10 chain: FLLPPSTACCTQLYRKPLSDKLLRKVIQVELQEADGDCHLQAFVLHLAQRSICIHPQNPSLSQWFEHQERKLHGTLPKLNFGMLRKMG

CCL17_HUMAN = target: T11, CCL17_HUMAN (human, UniProt Q92583 24-94)
T11 chain: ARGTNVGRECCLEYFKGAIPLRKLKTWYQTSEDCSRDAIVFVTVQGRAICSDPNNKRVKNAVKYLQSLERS

CCL7_HUMAN = CCL7_HUMAN (human, UniProt P80098 24-99)
Sequence of CCL7_HUMAN (P80098 24-99): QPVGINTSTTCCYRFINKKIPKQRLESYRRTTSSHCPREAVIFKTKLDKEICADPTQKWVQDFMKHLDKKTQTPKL

CCL5_HUMAN = target: T12, CCL5_HUMAN (human, UniProt P13501 24-91)
T12 chain: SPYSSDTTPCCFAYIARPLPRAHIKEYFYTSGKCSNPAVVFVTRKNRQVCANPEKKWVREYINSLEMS

CCL8_HUMAN = target: T13, CCL8_HUMAN (human, UniProt P80075 24-99)
T13 chain: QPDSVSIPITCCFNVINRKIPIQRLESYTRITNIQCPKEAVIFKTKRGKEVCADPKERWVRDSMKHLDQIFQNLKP

CCL4_HUMAN = target: T14, CCL4_HUMAN (human, UniProt P13236 24-92)
T14 chain: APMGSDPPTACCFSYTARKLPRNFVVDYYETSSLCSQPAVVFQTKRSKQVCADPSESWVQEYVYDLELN

CXCL8_HUMAN = CXCL8_HUMAN (human, UniProt P10145 28-99)
Sequence of CXCL8_HUMAN (P10145 28-99): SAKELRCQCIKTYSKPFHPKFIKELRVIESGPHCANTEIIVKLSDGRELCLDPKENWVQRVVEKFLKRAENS

CXCL1_HUMAN = CXCL1_HUMAN (human, UniProt P09341 35-107)
Sequence of CXCL1_HUMAN (P09341 35-107): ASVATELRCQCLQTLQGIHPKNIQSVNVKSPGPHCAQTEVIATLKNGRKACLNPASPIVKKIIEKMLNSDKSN

B1: P1243:G4S:P1156 (designed binder)
chain: RNHTEDNSTEYYDYEEARCACPARHLNNTNGTVLKLLGCHYFCNGTLCTAPDGYPCYNLTAQQVRTLTTYPNTSCAVGVCMKGTCVKNGTMEQCFKTPGGGGSADDDNELFTVQYCGMNCTKDEGGTWTGCTGKKEGCKCYHESGKNYGLCLSTEYTDFSQYGNPSDSEIEAAKPKRSDTLSH
Kd (CCL18_HUMAN): 0.543 nM | Kd (CCL21_HUMAN): 53.8 nM | Kd (CCL23_HUMAN): 0.632 nM | Kd (CCL11_HUMAN): 19.7 nM | Kd (CCL3_HUMAN): 16.4 nM | Kd (CCL19_HUMAN): 2.92 nM | Kd (CCL14_HUMAN): 1.99 nM | Kd (CCL24_HUMAN): 16.4 nM | Kd (CCL15_HUMAN): 8.71 nM | Kd (CCL3L1_HUMAN): 4.06 nM | Kd (CCL13_HUMAN): 1.33 nM | Kd (CCL27_HUMAN): 24.4 nM | Kd (CCL17_HUMAN): 3.51 nM | Kd (CCL7_HUMAN): 49 nM | Kd (CCL5_HUMAN): 8.95 nM | Kd (CCL8_HUMAN): 381 nM | Kd (CCL4_HUMAN): 19.4 nM | Kd (CXCL8_HUMAN): 7.63 nM | Kd (CXCL1_HUMAN): 17.4 nM
